Test results published in patent US10143747B2, “Breast cancer therapeutics” (IMBA—INSTITUT FÜR MOLEKULARE BIOTECHNOLOGIE GMBH, priority 2010, dated 2018).

System: human SKBR3 breast cancer cells
Experiment: Soft-Agar Colony Formation Assay (anchorage-independent growth)
Assay type: cell-based
Details: OPG 1 μg/ml with RANKL 1 μg/ml, 18 days in culture
Method: a, Western blotting for phosphorylated (P) IKKα, total IKKα, phosphorylated (P) p65 NFκB, total p65 NFκB, phosphorylated (P) IκBα, and total IκBα in isolated primary mouse mammary gland epithelial cells (MECs) in response to RANKL stimulation (1 μg/ml). β-actin is shown as loading control. b, Western blotting for IKKα, IKKβ, IKKγ, phosphorylated (P) p65 NFκB, total p65 NFκB, phosphorylated (P) IκBα, and total IκBα in pooled late stage mammary adenocarconimas (n=4 for each lane) that developed in control, RANK^Δmam and IKKΔ^Δmam females. β-actin is shown as loading control c, Expression of RANK, CyclinD1, and p21 mRNA in late stage mammary adenocacinomas that developed in control, RANK^Δmam, and IKKα^Δmam females. Expression was determined by qRT-PCR. Data are mean values+/−sem. n=4 per group. d, Soft-Agar Colony Formation Assay. Growth of human SKBR3 breast cancer cells in soft agar in response to stimulation with RANKL (1 μg/ml) or EGF (100 ng/ml). Anchorage-independent, macroscopic colonies formed after 18 days in culture with RANKL, which was prevented by the decoy receptor OPG (1 μg/ml). […] Apoptosis was detected by immunostaining for active Caspase 3. f, Apoptotic nuclei of epithelial cells (arrows) are shown for representative mammary gland sections. Magnifications×40. g, Quantification of mammary epithelial apoptosis. A minimum of 5000 nuclei was counted for each mouse. […]

B1: OPG: secreted decoy receptor of RANKL, used as RANKL inhibitor (1 μg/ml) (protein, UniProt O00300 22-401, looked up)
Tumor necrosis factor …: ETFPPKYLHYDEETSHQLLCDKCPPGTYLKQHCTAKWKTVCAPCPDHYYTDSWHTSDECLYCSPVCKELQYVKQECNRTHNRVCECKEGRYLEIEFCLKHRSCPPGFGVVQAGTPERNTVCKRCPDGFFSNETSSKAPCRKHTNCSVFGLLLTQKGNATHDNICSGNSESTQKCGIDVTLCEEAFFRFAVPTKFTPNWLSVLVDNLPGTKVNAESVERIKRQHSSQEQTFQLLKLWKHQNKDQDIVKKIIQDIDLCENSVQRHIGHANLTFEQLRSLMESLPGKKVGAEDIEKTIKACKPSDQILKLLSLWRIKNGDQDTLKGLMHALKHSKTYHFPKTVTQSLKKTIRFLHSFTMYKLYQKLFLEMIGNQVQSVKISCL
For B1, the “effect on RANKL-induced anchorage-independent macroscopic colonies” value was “prevented”.
